Five molecules from patent publication US20240132578A1 can be followed below.

Values joined by “and” are separate entries in the source; they are usually repeats but may differ in a detail not shown here. Equal values may be shown once.

What all share (test): cell-based or functional assay
For test [1], the target named is HIV-1 Env of isolate MGRM-G-028 (subtype G), on pseudovirus (HIV-1).
Test [2] concerns the target HIV-1 Env of isolate MGRM-C-014 (subtype C) (HIV-1).
The target of test [3] is HIV-1 Env of isolate MGRM-C-001 (subtype C) (HIV-1).
In test [4] the target is HIV-1 Env of isolate MGRM-G-015 (subtype G), on pseudovirus (HIV-1).
For test [5], the target named is HIV-1 Env of isolate MGRM-G-024 (subtype G), on pseudovirus (HIV-1).
The target in test [6] is HIV-1 Env of isolate MGRM-C-012 (subtype C) (HIV-1).
Test [7] deals with HIV-1 Env of isolate MGRM-C-004 (subtype C) (HIV-1).
Test [8] concerns the target HIV-1 Env of isolate MGRM-C-019 (subtype C) (HIV-1).
Test [9] concerns the target HIV-1 Env of isolate MGRM-G-009 (subtype G), on pseudovirus (HIV-1).
For test [10], the target named is HIV-1 Env of isolate MGRM-C-017 (subtype C) (HIV-1).
The target in test [11] is HIV-1 Env of isolate MGRM-G-011 (subtype G), on pseudovirus (HIV-1).
The target in test [12] is HIV-1 Env of isolate MGRM-C-028 (subtype C) (HIV-1).
In test [13] the target is HIV-1 Env of isolate MGRM-C-026 (subtype C) (HIV-1).
In test [14] the target is HIV-1 Env of isolate MGRM-C-005 (subtype C) (HIV-1).
For test [15], the target named is HIV-1 Env of isolate MGRM-C-010 (subtype C) (HIV-1).
In test [16] the target is HIV-1 Env of isolate MGRM-G-014 (subtype G), on pseudovirus (HIV-1).
In test [17] the target is HIV-1 Env of isolate MGRM-G-006 (subtype G), on pseudovirus (HIV-1).
The target in test [18] is HIV-1 Env of isolate MGRM-C-007 (subtype C) (HIV-1).
The target in test [19] is HIV-1 Env of isolate 93MW959 (subtype C) (HIV-1).
In test [20] the target is HIV-1 Env of isolate MGRM-G-027 (subtype G), on pseudovirus (HIV-1).
Test [21] deals with HIV-1 Env of isolate MGRM-G-017 (subtype G), on pseudovirus (HIV-1).
Test [22] deals with HIV-1 Env of isolate MGRM-G-016 (subtype G), on pseudovirus (HIV-1).
Test [23] addresses HIV-1 Env of isolate MGRM-C-008 (subtype C) (HIV-1).
The target in test [24] is HIV-1 Env of isolate MGRM-G-019 (subtype G), on pseudovirus (HIV-1).
In test [25] the target is HIV-1 Env of isolate MGRM-C-013 (subtype C) (HIV-1).
The target in test [26] is HIV-1 Env of isolate MGRM-C-023 (subtype C) (HIV-1).
Test [27] addresses HIV-1 Env of isolate MGRM-C-022 (subtype C) (HIV-1).
The target in test [28] is HIV-1 Env of isolate MGRM-C-024 (subtype C) (HIV-1).
Test [29] has as its target HIV-1 Env of isolate 98IN022 (subtype C) (HIV-1).
The target in test [30] is HIV-1 Env of isolate 97ZA012 (subtype C) (HIV-1).
Test [31] has as its target HIV-1 Env of isolate MGRM-G-013 (subtype G), on pseudovirus (HIV-1).
The target of test [32] is HIV-1 Env of isolate MGRM-C-009 (subtype C) (HIV-1).
For test [33], the target named is HIV-1 Env of isolate MGRM-G-001 (subtype G), on pseudovirus (HIV-1).
Test [34] has as its target HIV-1 Env of isolate MGRM-G-025 (subtype G), on pseudovirus (HIV-1).
Test [35] has as its target HIV-1 Env of isolate MGRM-G-004 (subtype G), on pseudovirus (HIV-1).
Test [36] deals with HIV-1 Env of isolate MGRM-C-006 (subtype C) (HIV-1).
For test [37], the target named is HIV-1 Env of isolate MGRM-C-002 (subtype C) (HIV-1).
The target in test [38] is HIV-1 Env of isolate MGRM-C-027 (subtype C) (HIV-1).
In test [39] the target is HIV-1 Env of isolate MGRM-C-025 (subtype C) (HIV-1).
Test [40] has as its target aMLV envelope, on pseudovirus (negative control).
The target in test [41] is HIV-1 Env of isolate MGRM-C-020 (subtype C) (HIV-1).
For test [42], the target named is HIV-1 Env of isolate MGRM-C-015 (subtype C) (HIV-1).
The target of test [43] is HIV-1 Env of pseudovirus MGRM-C-26 (HIV-1).
The target in test [44] is HIV-1 Env of pseudovirus JRCSF (HIV-1) (UniProt P20871).
The target in test [45] is HIV-1 Env of pseudovirus 93IN905 (HIV-1).
Test [46] has as its target HIV-1 Env of pseudovirus 92BR020 (HIV-1).
Test [47] addresses HIV-1 Env of pseudovirus 94UG103 (HIV-1).

B1: PGT-127 (antibody, V domains shown)
VH: QPQLQESGPGLVEASETLSLTCTVSGDSTGRCNYFWGWVRQPPGKGLEWIGSLSHCRSYYNTDWTYHNPSLKSRLTISLDTPKNQVFLRLTSVTAADTATYYCARFGGEVLVYRDWPKPAWVDLWGRGTLVVTVS
VL: QSALTQPPSASGSPGQSITISCTGTSNNFVSWYQQYPGKAPKLVIYEVNKRPSGVPDRFSGSKSGSTASLTVSGLQADDEGVYYCSSLVGNWDVIFGGGTKLTVL
With B1, the IC50 (µg/mL), neutralization of pseudovirus in test [1] is 0.032 µg/mL; in test [4], above 50 µg/mL; in test [5], above 50 µg/mL; in [9], above 50 µg/mL; in [11] it was above 50 µg/mL; in test [16], 0.009 µg/mL. In addition, the IC50 (µg/mL), neutralization of pseudovirus in test [17] was above 50 µg/mL; in test [20], above 50 µg/mL; in [21] it was above 50 µg/mL; in test [22], above 50 µg/mL; in test [24] it was 0.429 µg/mL; in test [31] it was 7.7 µg/mL. In addition, the IC50 (µg/mL), neutralization of pseudovirus in test [33] was 0.113 µg/mL; in [34], 19.3 µg/mL; in test [35], above 50 µg/mL; in test [40], above 50 µg/mL. Moreover, the IC50 (µg/mL), pseudovirus neutralization was above 50 µg/mL in [2]; above 50 µg/mL in [3]; 1.07 µg/mL in test [6]; 0.532 µg/mL in [7]; 0.017 µg/mL in test [8]; 3.4 µg/mL in [10]. The IC50 (µg/mL), pseudovirus neutralization is 7.57 µg/mL in test [12]; 0.014 µg/mL in test [13]; 0.57 µg/mL in test [14]; above 50 µg/mL in test [15]; above 50 µg/mL in test [18]; 6.95 µg/mL in [19]. The IC50 (µg/mL), pseudovirus neutralization was above 50 µg/mL in test [23]; above 50 µg/mL in test [25]; 1.08 µg/mL in [26]; 0.41 µg/mL in test [27]; above 50 µg/mL in [28]; 19.2 µg/mL in test [29]. Further, the IC50 (µg/mL), pseudovirus neutralization in test [30] was above 50 µg/mL; in test [32], above 50 µg/mL; in test [36] it was 0.319 µg/mL; in [37] it was 0.057 µg/mL; in test [38], above 50 µg/mL; in test [39], above 50 µg/mL. Besides, the IC50 (µg/mL), pseudovirus neutralization in [41] and in [42] was above 50 µg/mL throughout.

B2: PGT-136 (B cell culture wells 5366_P21 and 5329_C19) (antibody, V domains shown)
VH: QLQLQESGPGLVKPSETLSLTCTVSGGSMRGTDWGENDFHYGWIRQSSAKGLEWIGSIHWRGRTTHYKTSFRSRATLSIDTSNNRFSLTFSFVTAADTAVYYCARHKYHDIFRVVPVAGWFDPWGQGLLVTVSS
VL: EIVMTQSPPTLSVSPGETATLSCRASQNVKNNLAWYQLKPGQAPRLLIFDASSRAGGIPDRFSGSGYGTDFTLTVNSVQSEDFGDYFCQQYEEWPRTFGQGTKVDIK
Consider B2, for which the Primary Neutralization Index (B cell culture supernatant) in test [43] was 6.2 and 6; in test [44], 1.1 and 0.9; in test [45], 5.5 and 5.6.

B3: Antibody of B cell culture well 4869_K15 (antibody, V domains shown)
VH: QVHLQESGPGLVTPSETLSLTCTVSNGSVSGRFWSWIRQSPGRGLEWIGYFSDTDRSEYNPSLRSRLTLSVDRSKNQLSLRLKSVTAADSATYYCARAQQGKRIYGIVSFGEFFYYYYMDAWGKGTPVTVSS
VL: SLNPLSLAPGATAKIPCGERSRGSRAVQWYQQKPGQAPTLIIYNNQDRPAGVSERFSGNPDVAIGVTATLTISRVEVGDEADYYCHYWDSRSPISWIFGGGTQLTVL
As to B3, the Primary Neutralization Index (B cell culture supernatant) in test [46] worked out at 3.9; in test [43] it was 104; in test [47], 1.5; in [44], 2.1.

B4: PGT-137 (B cell culture well 5345_I1) (antibody, V domains shown)
VH: EVHLEESGPGLVRPSETLSLTCTASGGSIRGGEWGDSDYHWGWVRHSPEKGLEWIGSIHWRGTTHYNAPFRGRGRLSIDLSRNQFSLRLTSVTAEDTAVYYCVKHKYHDIVMVVPIAGWFDPWGQGLQVTVSS
VL: EIMMTQSPAILSVSPGDRATLSCRASQSVKNNLAWYQKRPGQAPRLLIFDTSSRASGIPARFSGGGSGTEFTLTVNSMQSEDFATYYCQQYEEWPRTFGQGTKVEIK
Take B4: the figures for the Primary Neutralization Index (B cell culture supernatant) in test [43], in test [44] and in [45] were 11.3, 1.1 and 3.3, respectively.

B5: PGT-123 (B cell culture well 4858_P8) (antibody, V domains shown)
VH: QLHLQESGPGLVKPPETLSLTCSVSGASINDAYWSWIRQSPGKRPEWVGYVHHSGDTNYNPSLKRRVTFSLDTAKNEVSLKLVDLTAADSATYFCARALHGKRIYGIVALGELFTYFYMDVWGKGTAVTVSS
VL: SSMSVSPGETAKISCGKESIGSRAVQWYQQKPGQPPSLIIYNNQDRPAGVPERFSASPDFRPGTTATLTITNVDAEDEADYYCHIYDARGGTNWVFDRGTTLTVL
With B5, the Primary Neutralization Index (B cell culture supernatant) in [46] came to 2.8; in test [43] it was 33.8; in [47] it was 1.1; in test [44], 1.6.
